Where “and” joins values, the source holds several entries; their conditions need not be identical. Equal values may be shown once.
B1: WT-HYPE (aa 102-458) (enzyme)
chain: GKLEARAALNQALEMKRQGKREKAQKLFMHALKMDPDFVDALTEFGIFSEEDKDIIQADYLYTRALTISPYHEKALVNRDRTLPLVEEIDQRYFSIIDSKVKKVMSIPKGNSALRRVMEETYYHHIYHTVAIEGNTLTLSEIRHILETRYAVPGKSLEEQNEVIGMHAAMKYINTTLVSRIGSVTISDVLEIHRRVLGYVDPVEAGRFRTTQVLVGHHIPPHPQDVEKQMQEFVQWLNSEEAMNLHPVEFAALAHYKLVYIHPFIDGNGRTSRLLMNLILMQAGYPPITIRKEQRSDYYHVLEAANEGDVRPFIRFIAKCTETTLDTLLFATTEYSVALPEAQPNHSGFKETLPVKP

How the values were obtained:
Experiment in all cases: BLI
[1] = target: BiP-His6 (WT-BiP, aa 19-637) (human, UniProt P11021 19-637)
Sequence of BiP-His6 (WT-BiP, aa 19-637) (P11021 19-637): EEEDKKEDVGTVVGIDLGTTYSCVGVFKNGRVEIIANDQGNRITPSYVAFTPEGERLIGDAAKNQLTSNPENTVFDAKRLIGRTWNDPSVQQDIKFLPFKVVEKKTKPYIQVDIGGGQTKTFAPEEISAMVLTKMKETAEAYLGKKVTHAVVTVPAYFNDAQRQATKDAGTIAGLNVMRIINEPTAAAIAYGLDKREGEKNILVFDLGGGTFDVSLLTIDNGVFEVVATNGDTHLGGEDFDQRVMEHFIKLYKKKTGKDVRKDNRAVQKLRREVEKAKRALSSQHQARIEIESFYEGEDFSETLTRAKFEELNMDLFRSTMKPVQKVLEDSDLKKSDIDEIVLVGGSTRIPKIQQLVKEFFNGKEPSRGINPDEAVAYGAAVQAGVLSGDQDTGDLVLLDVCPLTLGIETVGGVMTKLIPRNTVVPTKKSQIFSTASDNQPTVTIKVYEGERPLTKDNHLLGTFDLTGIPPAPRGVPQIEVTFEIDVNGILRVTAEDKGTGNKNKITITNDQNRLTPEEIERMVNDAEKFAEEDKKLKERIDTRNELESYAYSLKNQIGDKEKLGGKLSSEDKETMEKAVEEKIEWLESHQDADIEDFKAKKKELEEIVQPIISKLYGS

His6-BiP NBD (aa 28-405) = His6-BiP NBD (aa 28-405) (human, UniProt P11021 28-405)
Sequence of His6-BiP NBD (aa 28-405) (P11021 28-405): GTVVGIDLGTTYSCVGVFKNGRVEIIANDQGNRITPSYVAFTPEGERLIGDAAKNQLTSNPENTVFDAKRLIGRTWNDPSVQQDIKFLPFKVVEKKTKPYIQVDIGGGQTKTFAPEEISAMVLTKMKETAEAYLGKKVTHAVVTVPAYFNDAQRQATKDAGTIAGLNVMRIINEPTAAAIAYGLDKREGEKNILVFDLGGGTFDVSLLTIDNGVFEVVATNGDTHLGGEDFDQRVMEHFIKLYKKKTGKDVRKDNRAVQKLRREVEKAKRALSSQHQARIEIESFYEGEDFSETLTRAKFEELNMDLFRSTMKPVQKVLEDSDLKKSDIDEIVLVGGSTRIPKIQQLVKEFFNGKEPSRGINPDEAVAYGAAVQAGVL

WT-HYPE (aa 102-458) = target: B1

| Binder | Kd [1] | Kd (His6-BiP NBD (aa 28-405)) [µM] | Kd (WT-HYPE (aa 102-458)) [µM] |
| --- | --- | --- | --- |
| B1 | 4.5 µM and 6.1 µM | 3.16 |  |
| His6-BiP SBD (aa 418-637) (domain or fragment) not shown |  |  | 6.85 |
